The RNAGym collection of RNA variant scans (doi:10.7554/elife.90254)

B1: LINE1-full (parent)
chain: UACGUAGGUGGUUUUCCCCUGAUAGUGCUAAGGGGGCCUGGAAGUUUGGACUGGGCAGAGCUCAACACAGCGUGGCAAAGUGGCUGUGGCUAGACUGCCUCUCUGGAUUCCUCGUCACUCAGCAGGGCAUCUCUGAGAGAAAUGCC

Variants of: B1
Assay: self-cleavage, relative activity (ratio to wild type); higher = more cleavage; in vitro, sequencing; the parent is a self-cleaving ribozyme

Row | Variant | self-cleavage
1 | UACGUAGGUGGUUUUCCCCUGAUAGUGCUAAGGGGGCCUGGAAGUUUGGACUGGGCAGAGCUCAACACAGCGUGGCAAAGUGGCUGUGGCUAGACUGCCUCUCUGGAUUUCUCGUCACUCAACAGGGCAUCUCUGAGAGAAAUGCC [C110U G122A] | 1.09
2 | UACGUAGGUGGUUUUCCCCUGAUAGUGCUAAGGGGGCCUGGAAGUUUGGACUGGGCAGAGCUCAACACAGCGUGGCAAAGUGGCUGUGGCUAGACUGCCUCUCUGGAUGCCUCGUCACUCAGCAGGGCAUCUCUGAGAGGAAUGCC [U109G A140G] | 0.21
3 | UACGUAGGUGGUUUUCCCCUGAUAGUGCUAAGGGGGCCUGGAAGUUUGGACUGGGCAGAGCUCAACACAGCGUGGCAAAGUGGCUGUGGCUAGACUGCCUCUCUGGAUCCCUCGUCACUCAGCAGGGCAUCUCUAAGAGAAAUGCC [U109C G135A] | 1.71
4 | UACGUAGGUGGUUUUCCCCUGAUAGUGCUAAGGGGGCCUGGAAGUUUGGACUGGGCAGAGCUCAACACAGCGUGGCAAAGUGGCUGUGGCUAGACUGCCUCUCUGGAUCCCCCGUCACUCAGCAGGGCAUCUCUGAGAGAAAUGCC [U109C U112C] | 1.69
5 | UACGUAGGUGGUUUUCCCCUGAUAGUGCUAAGGGGGCCUGGAAGUUUGGACUGGGCAGAGCUCAACACAGCGUGGCAAAGUGGCUGUGGCUAGACUGCCUCUCUGGAUCCCACGUCACUCAGCAGGGCAUCUCUGAGAGAAAUGCC [U109C U112A] | 2.11
6 | UACGUAGGUGGUUUUCCCCUGAUAGUGCUAAGGGGGCCUGGAAGUUUGGACUGGGCAGAGCUCAACACAGCGUGGCAAAGUGGCUGUGGCUAGACUGCCUCUCUGGAUGCCCCGUCACUCAGCAGGGCAUCUCUGAGAGAAAUGCC [U109G U112C] | 0.19
7 | UACGUAGGUGGUUUUCCCCUGAUAGUGCUAAGGGGGCCUGGAAGUUUGGACUGGGCAGAGCUCAACACAGCGUGGCAAAGUGGCUGUGGCUAGACUGCCUCUCUGGAUCCCUCGUCACUCAGCAGGGCAUCUCUGAGAGAAACGCC [U109C U143C] | 1.29
8 | UACGUAGGUGGUUUUCCCCUGAUAGUGCUAAGGGGGCCUGGAAGUUUGGACUGGGCAGAGCUCAACACAGCGUGGCAAAGUGGCUGUGGCUAGACUGCCUCUCUGGAUCCCUCGUCACUCAGCAGGGAAUCUCUGAGAGAAAUGCC [U109C C128A] | 1.47
9 | UACGUAGGUGGUUUUCCCCUGAUAGUGCUAAGGGGGCCUGGAAGUUUGGACUGGGCAGAGCUCAACACAGCGUGGCAAAGUGGCUGUGGCUAGACUGCCUCUCUGGAUGCCUCGUCACUCAGCAGGGCAUCUCUGAGAGAAAUGCC [U109G] | 0.63
10 | UACGUAGGUGGUUUUCCCCUGAUAGUGCUAAGGGGGCCUGGAAGUUUGGACUGGGCAGAGCUCAACACAGCGUGGCAAAGUGGCUGUGGCUAGACUGCCUCUCUGGAUUUCUCGUCGCUCAGCAGGGCAUCUCUGAGAGAAAUGCC [C110U A117G] | 2.38
11 | UACGUAGGUGGUUUUCCCCUGAUAGUGCUAAGGGGGCCUGGAAGUUUGGACUGGGCAGAGCUCAACACAGCGUGGCAAAGUGGCUGUGGCUAGACUGCCUCUCUGGAUUUCUCGUCACUCAGCAGGGCAUCUCUGAGAGAGAUGCC [C110U A141G] | 1.4
12 | UACGUAGGUGGUUUUCCCCUGAUAGUGCUAAGGGGGCCUGGAAGUUUGGACUGGGCAGAGCUCAACACAGCGUGGCAAAGUGGCUGUGGCUAGACUGCCUCUCUGGAUCCCUCGUCACUCAACAGGGCAUCUCUGAGAGAAAUGCC [U109C G122A] | 1.81
13 | UACGUAGGUGGUUUUCCCCUGAUAGUGCUAAGGGGGCCUGGAAGUUUGGACUGGGCAGAGCUCAACACAGCGUGGCAAAGUGGCUGUGGCUAGACUGCCUCUCUGGAUCCCUCGUCACUCAGCAGGGCAUCUCUGAAAGAAAUGCC [U109C G137A] | 1.45
14 | UACGUAGGUGGUUUUCCCCUGAUAGUGCUAAGGGGGCCUGGAAGUUUGGACUGGGCAGAGCUCAACACAGCGUGGCAAAGUGGCUGUGGCUAGACUGCCUCUCUGGAUUUCUCGUCACUCUGCAGGGCAUCUCUGAGAGAAAUGCC [C110U A121U] | 1.43
15 | UACGUAGGUGGUUUUCCCCUGAUAGUGCUAAGGGGGCCUGGAAGUUUGGACUGGGCAGAGCUCAACACAGCGUGGCAAAGUGGCUGUGGCUAGACUGCCUCUCUGGAUUACUCGUCACUCAGCAGGGCACCUCUGAGAGAAAUGCC [C110A U130C] | 1.04
16 | UACGUAGGUGGUUUUCCCCUGAUAGUGCUAAGGGGGCCUGGAAGUUUGGACUGGGCAGAGCUCAACACAGCGUGGCAAAGUGGCUGUGGCUAGACUGCCUCUCUGGAUUACUCGUCACUCAGCAGGGCAUCUCUGAGAGAGAUGCC [C110A A141G] | 1.84
17 | UACGUAGGUGGUUUUCCCCUGAUAGUGCUAAGGGGGCCUGGAAGUUUGGACUGGGCAGAGCUCAACACAGCGUGGCAAAGUGGCUGUGGCUAGACUGCCUCUCUGGAUCCCUCGUCACUCAGCAGGGCAUCUCUGAGAGAGAUGCC [U109C A141G] | 1.46
18 | UACGUAGGUGGUUUUCCCCUGAUAGUGCUAAGGGGGCCUGGAAGUUUGGACUGGGCAGAGCUCAACACAGCGUGGCAAAGUGGCUGUGGCUAGACUGCCUCUCUGGAUCCCUCGUCACUCAGCAGGGCAUCUCUGAGAGAAAUGCU [U109C C146U] | 1.53
19 | UACGUAGGUGGUUUUCCCCUGAUAGUGCUAAGGGGGCCUGGAAGUUUGGACUGGGCAGAGCUCAACACAGCGUGGCAAAGUGGCUGUGGCUAGACUGCCUCUCUGGAUUUCUAGUCACUCAGCAGGGCAUCUCUGAGAGAAAUGCC [C110U C113A] | 1.35
20 | UACGUAGGUGGUUUUCCCCUGAUAGUGCUAAGGGGGCCUGGAAGUUUGGACUGGGCAGAGCUCAACACAGCGUGGCAAAGUGGCUGUGGCUAGACUGCCUCUCUGGAUGCCUCGUCACUCAGCAGGGCAUCUCUGAGAGAAACGCC [U109G U143C] | 0.87

Row | Variant | self-cleavage
21 | UACGUAGGUGGUUUUCCCCUGAUAGUGCUAAGGGGGCCUGGAAGUUUGGACUGGGCAGAGCUCAACACAGCGUGGCAAAGUGGCUGUGGCUAGACUGCCUCUCUGGAUUACUCGUCACUCAGCGGGGCAUCUCUGAGAGAAAUGCC [C110A A124G] | 1.62
22 | UACGUAGGUGGUUUUCCCCUGAUAGUGCUAAGGGGGCCUGGAAGUUUGGACUGGGCAGAGCUCAACACAGCGUGGCAAAGUGGCUGUGGCUAGACUGCCUCUCUGGAUUUCUCGUCACUCAGCAGGGCAUCUCUGAGAGAAAUGCU [C110U C146U] | 1.82
23 | UACGUAGGUGGUUUUCCCCUGAUAGUGCUAAGGGGGCCUGGAAGUUUGGACUGGGCAGAGCUCAACACAGCGUGGCAAAGUGGCUGUGGCUAGACUGCCUCUCUGGAUCCCUCGUCACUCAGCAUGGCAUCUCUGAGAGAAAUGCC [U109C G125U] | 1.27
24 | UACGUAGGUGGUUUUCCCCUGAUAGUGCUAAGGGGGCCUGGAAGUUUGGACUGGGCAGAGCUCAACACAGCGUGGCAAAGUGGCUGUGGCUAGACUGCCUCUCUGGAUUCUUCGUCACUCCGCAGGGCAUCUCUGAGAGAAAUGCC [C111U A121C] | 1.54
25 | UACGUAGGUGGUUUUCCCCUGAUAGUGCUAAGGGGGCCUGGAAGUUUGGACUGGGCAGAGCUCAACACAGCGUGGCAAAGUGGCUGUGGCUAGACUGCCUCUCUGGAUCCCUCGUCACUCAGCAGGGCAUCUCCGAGAGAAAUGCC [U109C U134C] | 1.21
26 | UACGUAGGUGGUUUUCCCCUGAUAGUGCUAAGGGGGCCUGGAAGUUUGGACUGGGCAGAGCUCAACACAGCGUGGCAAAGUGGCUGUGGCUAGACUGCCUCUCUGGAUCCCUCGUCACUCAGCAGGACAUCUCUGAGAGAAAUGCC [U109C G127A] | 1.49
27 | UACGUAGGUGGUUUUCCCCUGAUAGUGCUAAGGGGGCCUGGAAGUUUGGACUGGGCAGAGCUCAACACAGCGUGGCAAAGUGGCUGUGGCUAGACUGCCUCUCUGGAUCCCUCGUCACUCAGCAGGUCAUCUCUGAGAGAAAUGCC [U109C G127U] | 1.25
28 | UACGUAGGUGGUUUUCCCCUGAUAGUGCUAAGGGGGCCUGGAAGUUUGGACUGGGCAGAGCUCAACACAGCGUGGCAAAGUGGCUGUGGCUAGACUGCCUCUCUGGAUUACUCGCCACUCAGCAGGGCAUCUCUGAGAGAAAUGCC [C110A U115C] | 1.47
29 | UACGUAGGUGGUUUUCCCCUGAUAGUGCUAAGGGGGCCUGGAAGUUUGGACUGGGCAGAGCUCAACACAGCGUGGCAAAGUGGCUGUGGCUAGACUGCCUCUCUGGAUUGCUCGUCACUCAGCAGGGCAUCUCUGAGAGAGAUGCC [C110G A141G] | 1.37
30 | UACGUAGGUGGUUUUCCCCUGAUAGUGCUAAGGGGGCCUGGAAGUUUGGACUGGGCAGAGCUCAACACAGCGUGGCAAAGUGGCUGUGGCUAGACUGCCUCUCUGGAUCCCUCGUCACUCAGCAGGGCAUCUCUGAGAGUAAUGCC [U109C A140U] | 1.15
31 | UACGUAGGUGGUUUUCCCCUGAUAGUGCUAAGGGGGCCUGGAAGUUUGGACUGGGCAGAGCUCAACACAGCGUGGCAAAGUGGCUGUGGCUAGACUGCCUCUCUGGAUUACUCGUCACUCUGCAGGGCAUCUCUGAGAGAAAUGCC [C110A A121U] | 1.32
32 | UACGUAGGUGGUUUUCCCCUGAUAGUGCUAAGGGGGCCUGGAAGUUUGGACUGGGCAGAGCUCAACACAGCGUGGCAAAGUGGCUGUGGCUAGACUGCCUCUCUGGAUCCCUCGGCACUCAGCAGGGCAUCUCUGAGAGAAAUGCC [U109C U115G] | 1.04
33 | UACGUAGGUGGUUUUCCCCUGAUAGUGCUAAGGGGGCCUGGAAGUUUGGACUGGGCAGAGCUCAACACAGCGUGGCAAAGUGGCUGUGGCUAGACUGCCUCUCUGGAUUACUCGUCACUCAACAGGGCAUCUCUGAGAGAAAUGCC [C110A G122A] | 0.9
34 | UACGUAGGUGGUUUUCCCCUGAUAGUGCUAAGGGGGCCUGGAAGUUUGGACUGGGCAGAGCUCAACACAGCGUGGCAAAGUGGCUGUGGCUAGACUGCCUCUCUGGAUUUCUCGUCACUCAGCAGGGCAUCUCUGAGAGAAGUGCC [C110U A142G] | 2.11
35 | UACGUAGGUGGUUUUCCCCUGAUAGUGCUAAGGGGGCCUGGAAGUUUGGACUGGGCAGAGCUCAACACAGCGUGGCAAAGUGGCUGUGGCUAGACUGCCUCUCUGGAUGCCUCGUCACUCAGCAGGGCAUCUCUGAGAGAUAUGCC [U109G A141U] | 1.08
36 | UACGUAGGUGGUUUUCCCCUGAUAGUGCUAAGGGGGCCUGGAAGUUUGGACUGGGCAGAGCUCAACACAGCGUGGCAAAGUGGCUGUGGCUAGACUGCCUCUCUGGAUGCCUCGUCACUCAGCAGGGCAUCUCUGAGAGAGAUGCC [U109G A141G] | 0.93
37 | UACGUAGGUGGUUUUCCCCUGAUAGUGCUAAGGGGGCCUGGAAGUUUGGACUGGGCAGAGCUCAACACAGCGUGGCAAAGUGGCUGUGGCUAGACUGCCUCUCUGGAUUUCCCGUCACUCAGCAGGGCAUCUCUGAGAGAAAUGCC [C110U U112C] | 2.13
38 | UACGUAGGUGGUUUUCCCCUGAUAGUGCUAAGGGGGCCUGGAAGUUUGGACUGGGCAGAGCUCAACACAGCGUGGCAAAGUGGCUGUGGCUAGACUGCCUCUCUGGAUGCCUCGUCACUCAGCAGGGCAUCUCUGAGUGAAAUGCC [U109G A138U] | 1.07
39 | UACGUAGGUGGUUUUCCCCUGAUAGUGCUAAGGGGGCCUGGAAGUUUGGACUGGGCAGAGCUCAACACAGCGUGGCAAAGUGGCUGUGGCUAGACUGCCUCUCUGGAUCACUCGUCACUCAGCAGGGCAUCUCUGAGAGAAAUGCC [U109C C110A] | 1.55
